Experiments:
[1] = target: Gal4AD-Caf1a (UniProt Q9UIV1); experiment: yeast two-hybrid (β-galactosidase reporter); details: yeast strain YRG-2, LacZ reporter under five GAL4 consensus sequences; triplicate; parent: est. 8.4; read off a plot
[2] = target: Gal4AD-Caf1b (UniProt Q9UFF9); experiment: yeast two-hybrid (β-galactosidase reporter); details: yeast strain YRG-2, LacZ reporter under five GAL4 consensus sequences; triplicate; parent: est. 25; read off a plot
Sequence of UniProt Q9UFF9 (Q9UFF9 whole entry, the tested form may be a part): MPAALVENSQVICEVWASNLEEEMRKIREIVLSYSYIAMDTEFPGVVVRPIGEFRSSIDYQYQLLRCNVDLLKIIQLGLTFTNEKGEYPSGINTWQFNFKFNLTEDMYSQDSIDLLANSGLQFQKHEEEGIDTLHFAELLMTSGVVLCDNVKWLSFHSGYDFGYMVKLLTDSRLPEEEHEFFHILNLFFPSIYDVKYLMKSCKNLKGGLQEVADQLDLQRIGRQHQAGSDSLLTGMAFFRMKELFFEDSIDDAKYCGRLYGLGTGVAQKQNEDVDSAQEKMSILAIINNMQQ

Sequence of UniProt Q9UIV1 (Q9UIV1 whole entry, the tested form may be a part): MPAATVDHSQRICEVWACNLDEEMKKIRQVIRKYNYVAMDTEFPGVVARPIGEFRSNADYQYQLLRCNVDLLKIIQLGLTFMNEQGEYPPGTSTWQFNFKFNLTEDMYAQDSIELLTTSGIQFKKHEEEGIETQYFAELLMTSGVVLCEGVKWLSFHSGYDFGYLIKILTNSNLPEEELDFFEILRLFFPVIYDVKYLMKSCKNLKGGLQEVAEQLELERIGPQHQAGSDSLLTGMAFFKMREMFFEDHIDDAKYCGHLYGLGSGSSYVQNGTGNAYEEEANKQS

response [1]: 1.7 x10^4 RLU
response [2]: 2.8 x10^4 RLU
Substance: Gal4-DNA binding domain-TOB1 (from UniProt P50616) H45A
